Reference: the nanobody polyreactivity screen of Harvey et al. (2022)

assay: yeast display, Sf9 membrane polyspecificity reagent, FACS + sequencing; frameworks hold sequencing errors
Method in brief: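 A nanobody's polyreactivity label depends on the gate it was sorted from. Yeast display cells were stained with 10% biotinylated, detergent-solubilized Sf9 membrane reagent for 1 hour at 4 °C, enriched on streptavidin microbeads and sorted by FACS. The low and high (top ~1%) gates were set on anti-HA fluorescence for expression and streptavidin fluorescence for reagent binding.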

| Sequence | polyreactivity (PSR sort gate) |
| --- | --- |
| QVQLVESGGGLFHAGGRLRLSCAASGRIFGRYDMGWSIQAPGKERELVASISTGGGGTYYADSVKGRFTISRDNAKNTVYLQMNSLKPEDTAVYYCAKAWRGFWTKYDYWGQGTQVTVSS | low polyreactivity |
| QVQLEESGGGLVQAGGSLRLSCAASGFTFYYYAMGWYRQAPGKERELVAAINTSGGSTYYADSVKGRFTNSRDNAKNTVYLQMNSLKPVDTAVYYCAAVDGFWTQYPRMGYWGQGTQVTVSS | high polyreactivity |
| QVQLVESGGGLVQAGGSLRLSCAASGSTFAYYAMGWYRQAPGKERELVAAITSSGGSTYYADSVKGRFTISRDKAKNTVYLQMNSLKPEDTAVYYCNARYRRKSWRPFDYWGQGTQVTVSS | high polyreactivity |
| QVQLVESGGGLVQAGGSLRLSCAASGYTFGTYDMGWYRQAPGKERELVAAISIGGSTNYADSVKGRFTISRDNEKNTVYLQMNSLKPVDTAVYYCAAEVNVGTLLLSVIVEDGDYWGQGTQVTVSS | low polyreactivity |
| QVQLVESGGGLVHAGGSLRLSCAASGSIFAGNAMGWYRQAPGNERELVAGISRSGGSTNYADSVKGRFTISRDNAKNTVYLQMIRLKPEDTAVYYFAASATPSGVGMDYWGQGTQVNVSS | low polyreactivity |
| QVQHEESGVGLVQAGGRLRVSCAASGSTFAANTMGWYRTAPGKERELVAAITVRGGSTYYADSVKGRFSISRDNAKNTVYLQMISLKPEDTAVYYCAAERPPYGYLVVGFVSTQYYYWGQGTQVTVSS | low polyreactivity |
| QVQLVESWGGLVQAGGSLRLSCAASGRIFDRYAMGWYRQAPGKERELVASISSGGSTYYADSVKGRFTISRDNAKNTVYLQMNSLKPEDTAVYYCNAEARSRRYRYEYWGQGTQVTVSS | high polyreactivity |
| QDQLVESGGGLVPAAGSLRLSCASSGFSFRRNAMGCYRQAPGKEREFVAGITSGGSTYYADSVKGRFTISRDNAKNTVYLLLNSLKPEDTAVYFCAATYRRRYGYWGQGTQVTVSS | high polyreactivity |
| QVQLVESGGGLVQAGGSLRLSCAASGIIFVRNARGWSRQAPGKERELVAAITGRGVSTYYADSVKGRFTISRDNAKNTVYLQMNSLNQEDTAVYYGAARYSSRGTYPRRYDYWGQGTQVTVSS | high polyreactivity |
| QVQLVESGGGLVQAGGSLRLSCAASGFNFDENAMGWYRQAPGKEREFYAAISISGSSTYADSVKGRFTISRDNAKNTVYLQMNCLKPEDTAVYFCAASYTTEYTGDGHSGVGDGDYWGQGTQVTVSS | low polyreactivity |
| QDQLVESGGCLVQAGGSLRLRCAASGITFDRYTMGWYRQAPGKERELVAAIRSGGGTYYADSVKGRFTISRDNAKNTVYLQMNSLKPEDTAVYYCAATRVSPSQYLRYYYWGQGTQVTVSS | high polyreactivity |
| QVQLVESGGGLVQAGGSLRLSCAASGSIFGYYTMGWYRQAPGKERELVATISRSGGSTYYADSVKGRFTISRDNAKNTVYLQMNSLKPEDTAVYYCGARSWGGYDSRGYWGQGTQVTVSS | high polyreactivity |
| QVQLVESGGGLVKAGGSLRLSCAASGRIFRYYAMGRYRQAPGKEREFVAAISTDGGRTYYADSVKGRFTISRDNAKNTVYLQMNSLKPEDTAVYYCAIYPGISGYNYWGQGTQVTVSS | high polyreactivity |
| QVQLVESGGGLVQAGGSLRLSCAASGRTFGINAMGWYRQAPGKERELVADITDSGVSTYYADSVKGRFTISRDNAKNTVYLQMNSLKPEDTAVYYCNTGSYLFFLYGDDYWGQGTQVTVSS | low polyreactivity |
| QLQLVESGGGLVQAGGSLRLSCAASGLIFPFYAMGWYRQAPGKERELVAAITSSGNTYYADSVKGLFTISRDNAKNTVYLQMNSLKPEDTAVYYCAADGSRIVKFDYWGQGTQVTVSS | high polyreactivity |
| QVQLVESGGGLVQAGGSLRLSCAASGSISKYTMGWYRQAPGKERELVAAINWSGGSTYADSVKGRFTISRDNAKNTVYLQMNSLKPEATAVYYCNARAQRGYFGYRYNYWGQGTQVTVSS | high polyreactivity |
| QVQLVESGGGLVQAGGSLPLSCAASGITIYGYAMGWYRQAPGKESELVAAMSTSGGRTYYADSVKGRFTISRDNAKNTVYLQMNSMKPEDTAVYYCAVAPYKGTWDSRSSWRRRAYWGQGTQVTVSS | high polyreactivity |
| QVQLVESAGGLVQAGGSLRLSCAASGSTFDLYAMGWYRQAPGKEREFVAAISRSGGSTYYADSVKGRFTISRDNAKNTVYLHMNSLKPEDTAVYYSNARWPPGVSRGGMGYWGQGTQVTVST | high polyreactivity |
| QVQLVESGGGLVQAGGSLRLRCAASGSIFTWYAMGWYRQAPAKERELVAAITRGGSTSADSVKGRFTISRDNAKNTVYLQMNSLKPEYTAVYYCNAVYGVYDFNYWGQGTQVTVSS | low polyreactivity |
| QVQLVESGGGLVQAGGSLRLSCAASGSTFDRNVMGWYRQAPGKERELVAAISRVSSTNYADSVKGRFTISRDNAKNTVYLQMNSLKPEDTAVYYFAADGAGSIMNYWGQGTQVTVSS | low polyreactivity |
| QVQLVESGGGLVQAGGSLRLSCAASGFIFDRYAMGWYRQAPGKERELVAAISSGGSTYYADSVKGRFTISRDNAKNTVYLQMNSLKPEDTAVYYCAAESWLNFIYEYDYWGQGTQVTVSS | low polyreactivity |

| Sequence | polyreactivity (PSR sort gate) |
| --- | --- |
| QVQLVESGGGLVQAGGSLRLSCAASGRIFIYYAMGWDRQAPGKERELVAAISWGGGRTYYADSVKGRFTISRDNAKNTVYLQMNSLKPEDTAVYYCAAGVYTGQHEYDYWGQGTQVTVSS | low polyreactivity |
| QVQLVESGGGLVQAGGSLRLSCAASGSTFKFNAMGWYRQAPGKETELVATITSRGSRTYYADSVKGRFTISRDNAKNTVYLQMNSLKPEDTAVYYCAARVFRPYGSLYDYWGQGTQVTVSS | high polyreactivity |
| QVQLVESGGGLVQAGGSLRLSCAASGRIFWPYAMGWYRQAPGKERELVAVITSGTTTYYADSVKGRFTISRDNAKNTVYLKMNSLKPEDTAVYYCNIFSRARRYFEYDYWGQGTQVTVSS | low polyreactivity |
| HDQHVESGGGLVQAGGSLRLSCAASGRIYGSTMGWYRQAPGKERELVAAITRNGGSTYYADSVKGRFTISRDNSKNTVYLQMNSVKPEDTEVYYCAARNAFGTYYYWGQGTQVNVSS | high polyreactivity |
| QVQLVESGVGLVQAGGSLRLSCAASGFIFDHNAMGWYRQAPGKERELVAAITRSGGSTYYADSVKGRFTISRDNAKNTVYLQMNSLKPEDTAVYYCAADLSYRGATRGDYYWGQGTQVTVSS | low polyreactivity |
| QVQLVESGGGLVQAGGSLRLSCAASGFIFAYYAMGWYRQEPGKERELVAAISSSGSTNYADSVKGRFTISRDNAKNTVYLQMNSLKPEDTAVYYCAADRVGGTPQAYVPSQFDYWGQGTQVTVSS | low polyreactivity |
| QVQLVESGGGFVQAGGSLRLSCAASGRTFGHNDMGWYIQAPGKERELVATNSADGSTNYADSVKGRITISRDNEKKTVKLQMNSLKPEDTAVSYCAKDYQYVAYDYWGQGTQVTVSS | low polyreactivity |
| QVQLVESGGGLVQAGGSLRLSCAASGRTFYGYAMGWYRQAPGKERELVAVITSGVRTNYADSVKGRFTISRDNAKNTVYLQMNSLKPEDTAVYYCAARGTLALRDHYGYWGQGTQVNVSS | high polyreactivity |
| HVQLVESGGRLVQAGGSLRLSCAASGIIFGYYAMGWYRQAPGNERELVAAIDWTGGNTYYADSVKGRFRISRDIAKNTVYLQMNSLKPEDTAVYYCAADYYSQEDYWGQGTQVTVSS | low polyreactivity |
| QVQLVESGGGLVQAGGSLRLSCAASGSTFGSYAMGWYRQAPGKERELVAAITSSGGRTYYADSVKGRFTISRDNSKNTVYLQMNSLKPEDTAVYYCAARPRGGVFEYGYWGQGTQVTVSS | high polyreactivity |
| QVQLVESGGGLVQAGGSLRLSCAASGRTFSGNAMGWYRQAPGKERELVASISTSTDGTYYADSVKGRFTISRDNAKNTVYLQMNSLKAEDTAVYYCTTTTYHWYYYRWEIFDYRGQGTQVTVSS | low polyreactivity |
| QVQLVESGGGLVQAGGSLRLSCAASGSIFFEYAMGWYRQAPGKERELVAAISRRGGSTYYADSVKGRFTISRDNAKNTVYLQMNSLKPEDTAVYYCNKVNRASRGDYDYWGQGTQVTVSS | high polyreactivity |
| QVQLVESGGGLFQAGGSLRLSCAASGRILNINAMGWYRQAPGKERELVAAITWRGGRTFYADSVKGRFTISRDNAKNTVYLQMNSLKPEDTAVYYCAASSNTWYPTGYYWGQGTQVTVSS | high polyreactivity |
| QVQLVESGGGLVQVGGSLRLSCAASGRTFWWYAMGWYRQAPGKERELVAAITRSGGSTYYADSVKGRFTISRDNAKYTVYLQMNSLKQEDTAVYYCAASHYGLLEYWGQGTQVTVSS | low polyreactivity |
| QVQLVESGGGLVQAGGSLRLSCAASGRIFTHNAMGWYRQAPGKERELVAAITSGGRTTYADSVKGRFTISRDNAKNTVYLQRNSLKPEDTAVYYCNADTGLGSLDFDKRDYWGQGTQVTVSS | low polyreactivity |
| QVQLVESGGGLVQAGGSLRLSCAASGIIFGDYAMGWYRQAPGKEMELVAAITWSGGSTYYADSVKGRFTISRDNAKNTVYLQMNSLKPEDTAFYYCNADDDGRVSSTIVEYWGQGTQVTVSS | low polyreactivity |
| QVQLVESGGGLVQAGGSLRLSCAASGRIFDGNAMGWYRKAPGKERELVATITRGGRTNYADSVKGRFTISRDNAKNTVYLQMNSLKPEDTAVYYCNAPIYGRYYDLDYWGQGTQVTVSS | low polyreactivity |
| QVQLVESGGGLVQAGGSLRISSAASGSTFSRYAMGWYRQAPGKERELVAAISWRGGRTYYADSVKGRFTISRDNAKNTVYLQMNSLKPEDTAVYYCNAVSSFTSPRYDYWGQGTQVTVSS | high polyreactivity |
| QVQLVESGGGLVQAGGSLLLSCAASGGTFYYYAMGWYRQAPGKERELVASISSRGGSTYYADSVKGRFTISRDNAKNTVYLQMNSLKPEDTAVYYCAARSLYSGFGYWGQGTQVTVSS | high polyreactivity |
| QVQLVESGGGLVQAGGSLRLSCAASGNTFGRYAMGWYRQAPGKERELVAAITKRGGTTYYADSVKGRFTISRDYAKNTVYLQMNSLKPEDTAVYDCAAKRSVLRTADYDYWGQGTQVTVSS | high polyreactivity |
